Results as given in PMC2588520.
Where two headings read alike, the source gives them in different places.

Tests used:
[1] = target: T1, UP1 (proteolytic product of hnRNP A1) (UniProt P09651 1-196); assay: EMSA
[2] = target: T1, UP1 (proteolytic product of hnRNP A1); assay: EMSA; remark: listed apart in the source

T1 sequence (P09651 1-196): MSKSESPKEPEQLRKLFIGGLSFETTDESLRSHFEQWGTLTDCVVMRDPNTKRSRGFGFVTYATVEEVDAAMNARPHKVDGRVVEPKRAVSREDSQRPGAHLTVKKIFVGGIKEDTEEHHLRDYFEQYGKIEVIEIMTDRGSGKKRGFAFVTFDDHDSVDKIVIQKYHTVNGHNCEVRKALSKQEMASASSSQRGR

UGAGAAGGGCGUAGG (ssRNA) [15-mer telomerase RNA]: binds [1]; binds [2].
